Usually Kd stands for a measure of binding affinity in units of concentration.

Positions count from the first letter of the chain named.

The target of experiment [1] is T1, human FcγRIIIaV extracellular domain, His-tagged (human, UniProt P08637 17-208).
T1 construct: also called FcgRIIIaV; not shown: C-terminal His-tag
The experiment is described as follows: SPR Biacore, KD(SG1)/KD(variant). In general terms: In SPR one partner is held on a chip, and binding of the other changes the refractive index at the surface.

Experiment [2] addresses T2, cynomolgus monkey FcγRIIa2 extracellular domain with C-terminal His-tag (cynomolgus monkey).
T2 construct: also called cyno FcgRIIa2; cynoFcγRIIa2
T2 chain: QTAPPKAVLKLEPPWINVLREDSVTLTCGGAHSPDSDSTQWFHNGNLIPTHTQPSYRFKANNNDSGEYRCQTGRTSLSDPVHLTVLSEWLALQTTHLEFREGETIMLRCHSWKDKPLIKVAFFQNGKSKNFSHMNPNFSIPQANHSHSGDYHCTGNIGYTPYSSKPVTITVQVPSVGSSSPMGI
Kind of experiment: SPR (Biacore), KD of SG1 / KD of variant.

For experiment [3], the target named is T3, human FcγRIIb extracellular domain with C-terminal His-tag (human, UniProt P31994 43-217).
T3 construct: also called human FcgRIIb
T3 sequence: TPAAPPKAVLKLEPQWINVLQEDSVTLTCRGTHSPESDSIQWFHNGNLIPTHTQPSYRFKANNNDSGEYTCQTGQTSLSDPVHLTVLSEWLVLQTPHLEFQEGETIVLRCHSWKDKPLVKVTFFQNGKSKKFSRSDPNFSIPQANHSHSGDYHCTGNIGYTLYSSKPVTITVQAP
The experiment is described as follows: SPR (Biacore), antibody captured, FcgR analyte.

For experiment [4], the target named is T4, human FcγRIIIaV extracellular domain with C-terminal His-tag (human, UniProt P08637 17-208).
T4 construct: also called human FcgRIIIaV
Kind of experiment: SPR (Biacore), antibody captured, FcgR analyte.

For experiment [5], the target named is T5, cynomolgus monkey FcγRIIa3 extracellular domain with C-terminal His-tag (cynomolgus monkey).
T5 construct: also called cyno FcgRIIa3; cynoFcγRIIa3
T5 chain: T2 chain with K127I, N130K, H133P, Q142R
The experiment is described as follows: SPR (Biacore), KD of SG1 / KD of variant.

Experiment [6] addresses T6, human FcγRIIaR extracellular domain with C-terminal His-tag (human, UniProt P12318 34-217).
T6 construct: also called human FcgRIIaR; FcγRIIa (type R)
T6 chain: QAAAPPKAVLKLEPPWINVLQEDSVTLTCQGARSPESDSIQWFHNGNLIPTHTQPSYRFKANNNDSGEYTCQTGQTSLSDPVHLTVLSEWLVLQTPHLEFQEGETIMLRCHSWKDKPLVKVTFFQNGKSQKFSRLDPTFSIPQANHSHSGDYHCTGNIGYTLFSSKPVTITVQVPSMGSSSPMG
The experiment is described as follows: SPR (Biacore), KD of SG1 / KD of variant.

Experiment [7] addresses T3, human FcγRIIb extracellular domain with …. The experiment is described as follows: SPR (Biacore), KD of SG1 / KD of variant.
The target of experiment [8] is T7, cynomolgus monkey FcγRIIb extracellular domain with C-terminal His-tag (cynomolgus monkey).
T7 construct: also called cyno FcgRIIb; cynoFcγRIIb
T7 chain: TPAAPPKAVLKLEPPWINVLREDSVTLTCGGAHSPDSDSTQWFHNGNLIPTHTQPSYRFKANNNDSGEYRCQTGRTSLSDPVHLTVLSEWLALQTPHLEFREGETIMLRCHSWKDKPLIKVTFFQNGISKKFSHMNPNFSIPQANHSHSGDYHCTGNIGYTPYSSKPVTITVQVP
The experiment is described as follows: SPR (Biacore), KD of SG1 / KD of variant.

In experiment [9] the target is T8, human FcγRIIaH extracellular domain with C-terminal His-tag (human, UniProt P12318 34-217).
T8 construct: also called human FcgRIIaH; FcγRIIa (type H)
T8 sequence: T6 chain with R134H
Kind of experiment: SPR (Biacore), KD of SG1 / KD of variant.

For experiment [10], the target named is T4, human FcγRIIIaV extracellular domain …. Kind of experiment: SPR (Biacore), KD of SG1 / KD of variant.
Experiment [11] addresses T5, cynomolgus monkey FcγRIIa3 …. Kind of experiment: SPR (Biacore), antibody captured, FcgR analyte.
Experiment [12] concerns the target T8, human FcγRIIaH extracellular domain …. The experiment is described as follows: SPR (Biacore), antibody captured, FcgR analyte.
For experiment [13], the target named is T9, cynomolgus monkey FcγRIIa1 extracellular domain with C-terminal His-tag (cynomolgus monkey).
T9 construct: also called cyno FcgRIIa1; cynoFcγRIIa1
T9 chain: T2 chain with T95P, A121T, K127I, S128A, N130K, N135D, Q142R
The experiment is described as follows: SPR (Biacore), antibody captured, FcgR analyte.

Experiment [14] deals with T2, cynomolgus monkey FcγRIIa2 …. The experiment is described as follows: SPR (Biacore), antibody captured, FcgR analyte.
For experiment [15], the target named is T10, cynomolgus monkey FcγRIIIaS extracellular domain, His-tagged (cynomolgus monkey, UniProt A3RFZ7 21-206 (rhesus entry)).
T10 construct: also called cyno FcgRIIIaS; cynoFcγRIIIaS; not shown: His-tag added to the C-terminus
Kind of experiment: SPR (BIACORE), antibody captured on chip, soluble FcgR as analyte, 25 C. As for the experimental part:
(§1) The kinetic analysis of interactions between these antibodies and FcγR was carried out using BIACORE® T200 or BIACORE® 4000 (GE Healthcare). HBS-EP+ (GE Healthcare) was used as the running buffer, and the measurement temperature was set to 25° C. […] After the measurement, the antibody captured on the chip was washed off by allowing reaction with 10 mM glycine-HCl, pH1.5 and 25 mM NaOH so that the chip was regenerated and used repeatedly. The sensorgrams obtained as measurement results were analyzed by the 1:1 Langmuir binding model using the BIACORE® Evaluation Software to calculate the binding rate constant ka (L/mol/s) and dissociation rate constant kd (1/s), and the dissociation constant KD (mol/L) was calculated from these values. […] Regarding such interactions, KD values were calculated using the following 1:1 binding model described in BIACORE® T100 Software Handbook BR1006-48 Edition AE.

The target of experiment [16] is T11, cynomolgus monkey FcγRIIa3 extracellular domain, His-tagged (cynomolgus monkey).
T11 construct: also called cyno FcgRIIa3; cynoFcγRIIa3; not shown: His-tag added to the C-terminus
T11 chain: T2 chain with K127I, N130K, H133P, Q142R
The experiment is described as above. As for the experimental part: as §1

For experiment [17], the target named is T12, human FcγRIIb extracellular domain, His-tagged (human, UniProt P31994 43-217).
T12 construct: also called human FcgRIIb; not shown: His-tag added to the C-terminus
T12 sequence: T3 sequence
Described as above. As for the experimental part:
as §1

Experiment [18] concerns the target T13, cynomolgus monkey FcγRIIa3 extracellular domain, His-tagged (cynomolgus monkey).
T13 construct: also called cyno FcγRIIa3; cynoFcgRIIa3; not shown: C-terminal His-tag
T13 chain: T2 chain with K127I, N130K, H133P, Q142R
The experiment is described as follows: SPR Biacore, KD(SG1)/KD(variant).

In experiment [19] the target is T6, human FcγRIIaR extracellular domain …. The experiment is described as follows: SPR (Biacore), antibody captured, FcgR analyte.

T4 sequence (P08637 17-208 F176V): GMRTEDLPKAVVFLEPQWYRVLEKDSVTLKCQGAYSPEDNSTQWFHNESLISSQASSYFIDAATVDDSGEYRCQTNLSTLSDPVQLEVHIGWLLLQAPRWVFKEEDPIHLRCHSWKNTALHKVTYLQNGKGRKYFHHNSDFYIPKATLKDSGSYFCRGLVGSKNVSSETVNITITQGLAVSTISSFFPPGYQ
T1 sequence (P08637 17-208 F176V): as above
T10 sequence (A3RFZ7 21-206): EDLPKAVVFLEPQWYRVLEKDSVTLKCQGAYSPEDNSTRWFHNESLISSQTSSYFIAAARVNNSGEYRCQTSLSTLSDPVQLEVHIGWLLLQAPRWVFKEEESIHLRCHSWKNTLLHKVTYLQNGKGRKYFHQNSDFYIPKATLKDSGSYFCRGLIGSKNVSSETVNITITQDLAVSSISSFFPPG

B1: M103205H795-MY016/M103202L889-SK1 (antibody, human IgG1, kappa, name in EU numbering)
heavy: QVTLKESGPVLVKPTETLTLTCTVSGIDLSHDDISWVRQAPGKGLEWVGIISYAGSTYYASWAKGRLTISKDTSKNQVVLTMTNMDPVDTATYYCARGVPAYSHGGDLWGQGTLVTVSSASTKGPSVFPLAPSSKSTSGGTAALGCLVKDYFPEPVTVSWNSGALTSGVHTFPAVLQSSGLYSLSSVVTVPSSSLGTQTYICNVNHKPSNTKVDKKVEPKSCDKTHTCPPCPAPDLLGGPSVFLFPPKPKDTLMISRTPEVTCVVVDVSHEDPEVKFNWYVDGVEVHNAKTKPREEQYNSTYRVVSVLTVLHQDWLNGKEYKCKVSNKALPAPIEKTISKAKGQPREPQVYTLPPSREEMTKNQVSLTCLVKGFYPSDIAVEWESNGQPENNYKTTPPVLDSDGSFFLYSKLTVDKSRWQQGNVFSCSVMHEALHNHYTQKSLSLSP
light: DIVMTQSPATLSLSPGERATLSCTSSQSVYHANWLSWFQQKPGQPPKLLIYWASTLAYGVPSRFSGSGSGTDFTLTISSLQPEDAATYYCAGGYGGGRYAFGQGTKVEIKRTVAAPSVFIFPPSDEQLKSGTASVVCLLNNFYPREAKVQWKVDNALQSGNSQESVTEQDSKDSTYSLSSTLTLSKADYEKHKVYACEVTHQGLSSPVTKSFNRGEC
notes: Substitution introduced into M103205H795-SG1
Take B1: the “KD fold (SG1 = 1)” value in experiment [1] came out at 2.19 fold.

B2: M103205H795-MY463/M103202L889-SK1 (antibody)
chain 1: QVTLKESGPVLVKPTETLTLTCTVSGIDLSHDDISWVRQAPGKGLEWVGIISYAGSTYYASWAKGRLTISKDTSKNQVVLTMTNMDPVDTATYYCARGVPAYSHGGDLWGQGTLVTVSSASTKGPSVFPLAPSSKSTSGGTAALGCLVKDYFPEPVTVSWNSGALTSGVHTFPAVLQSSGLYSLSSVVTVPSSSLGTQTYICNVNHKPSNTKVDKKVEPKSCDKTHTCPPCPHPELLTGPSVFLFPPKPKDTLMISRTPEVTCVVVDVSDEDPEVKFNWYVDGVEVHNAKTKPREEQYNSTYRVVSVLTVLHQDWLNGKEYKCKVSNKALPKPIEKTISKAKGQPREPQVYTLPPSREEMTKNQVSLTCLVKGFYPSDIAVEWESNGQPENNYKTTPPVLDSDGSFFLYSKLTVDKSRWQQGNVFSCSVMHEALHNHYTQKSLSLSP
chain 2: B1 light
With B2, the “KD fold (SG1 = 1)” value in experiment [2] worked out at 2.8 fold. For the same molecule, the equilibrium dissociation constant (Kd) stood at 2300 nM in experiment [3] and 4800 nM in experiment [4].

B3: M103205H795-MY471/M103202L889-SK1 (antibody)
chain 1: B2 chain 1 with H233R
chain 2: B1 light
In the case of B3, the “KD fold (SG1 = 1)” value is 3.5 fold in [5], 2.3 fold in [6] and 1.6 fold in experiment [7].

B4: M103205H795-MY470/M103202L889-SK1 (antibody)
chain 1: B2 chain 1 with H233Q
chain 2: B1 light
As for B4, the “KD fold (SG1 = 1)” value in experiment [6] turned out to be 2.3 fold. The molecule also gave an equilibrium dissociation constant (Kd) in [3] of 2300 nM.

B5: M103205H795-MY461/M103202L889-SK1 (antibody)
heavy: B2 chain 1 with H233F
light: B1 light
notes: Substitutions in EU numbering on SG1
Regarding B5, the “KD fold (SG1 = 1)” value in [2] was found to be 2.8 fold; in experiment [8], 3.6 fold; in experiment [9], 3.6 fold; in [10], 0.2 fold. Also, the Kd in [11] was 3500 nM; in experiment [12] it was 180 nM; in experiment [13], 1800 nM.

B6: M103205H795-MY455/M103202L889-SK1 (antibody, human IgG1, kappa)
heavy: B2 chain 1 with H233A, P234T
light: B1 light
notes: as for B5
B6 displayed a Kd in experiment [14] of 2900 nM.

B7: M103205H795-MY261/M103202L889-SK1 (antibody, human IgG1, kappa, name in EU numbering)
heavy: B2 chain 1 with H233A, T238H
light: B1 light
notes: Asn at EU 236 of MY201 replaced with His
With B7, the dissociation constant Kd in experiment [15] worked out at 2400 nM; in [16], 55000 nM; in experiment [17], 53 nM.

B8: M103205H795-MY037/M103202L889-SK1 (antibody, human IgG1, kappa, name in EU numbering)
heavy: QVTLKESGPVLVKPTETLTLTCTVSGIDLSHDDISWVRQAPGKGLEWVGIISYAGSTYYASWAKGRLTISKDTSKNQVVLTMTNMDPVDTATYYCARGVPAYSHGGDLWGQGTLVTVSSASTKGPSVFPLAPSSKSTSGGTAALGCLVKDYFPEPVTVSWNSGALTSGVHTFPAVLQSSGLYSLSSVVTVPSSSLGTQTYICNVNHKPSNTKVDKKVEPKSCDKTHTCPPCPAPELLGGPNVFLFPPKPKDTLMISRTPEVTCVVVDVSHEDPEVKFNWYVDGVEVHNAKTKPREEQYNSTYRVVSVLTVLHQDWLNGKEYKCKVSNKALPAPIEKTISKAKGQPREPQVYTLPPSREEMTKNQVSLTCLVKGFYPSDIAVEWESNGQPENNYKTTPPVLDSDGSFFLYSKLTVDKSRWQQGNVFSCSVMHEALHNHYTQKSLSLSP
light: B1 light
notes: Substitution introduced into M103205H795-SG1; EU numbering
In the case of B8, the “KD fold (SG1 = 1)” value turned out to be 2.19 fold in experiment [1] and 1.6 fold in experiment [18].

B9: M103205H795-MY462/M103202L889-SK1 (antibody)
heavy: B2 chain 1 with H233G
light: B1 light
notes: as for B5
B9: the “KD fold (SG1 = 1)” value in experiment [8] amounted to 3.6 fold; in experiment [10] it was 0.2 fold. In experiment [14], this molecule gave a Kd of 1800 nM.

B10: M103205H795-MY474/M103202L889-SK1 (antibody)
heavy: B2 chain 1 with H233V
light: B1 light
notes: as for B5
Regarding B10, the “KD fold (SG1 = 1)” value in experiment [7] was found to be 2.9 fold. For the same molecule, binding in [12] was put at a Kd of 130 nM.

B11: M103205H795-MY453/M103202L889-SK1 (antibody, human IgG1, kappa)
heavy: B2 chain 1 with H233A, P234R
light: B1 light
notes: as for B5
Take B11: the equilibrium dissociation constant (Kd) is 16 nM in experiment [19], 6200 nM in [13] and 1400 nM in [4].

The record behind these values is patent publication US20250076311A1 (Chugai, published 2025).
